Biological target: CotB3 (class I P450 hydroxylase of the cyclooctatin pathway) (Streptomyces melanosporofaciens MI614-43F2) (UniProt C9K1X6)
Chain of UniProt C9K1X6 (C9K1X6 whole entry): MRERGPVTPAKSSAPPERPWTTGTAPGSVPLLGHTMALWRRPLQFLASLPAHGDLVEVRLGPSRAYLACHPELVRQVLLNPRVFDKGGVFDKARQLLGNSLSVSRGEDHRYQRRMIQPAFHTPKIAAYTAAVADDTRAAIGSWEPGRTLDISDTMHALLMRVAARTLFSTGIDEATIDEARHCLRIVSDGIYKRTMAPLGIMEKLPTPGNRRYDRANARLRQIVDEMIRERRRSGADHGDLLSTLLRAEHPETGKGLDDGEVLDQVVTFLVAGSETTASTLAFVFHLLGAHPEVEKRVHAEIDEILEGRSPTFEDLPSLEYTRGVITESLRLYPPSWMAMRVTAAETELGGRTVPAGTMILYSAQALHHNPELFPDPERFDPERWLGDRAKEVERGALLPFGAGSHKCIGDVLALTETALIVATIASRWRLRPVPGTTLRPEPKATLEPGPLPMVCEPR

whole cell catalysis in E. coli (CotB3 with PdR/Pdx-W106E): formation of cyclooctat-9-en-5,7-diol from added cyclooctat-9-en-7-ol, GC-MS: 100%
Substance: Pdx-W106E (putidaredoxin, ferredoxin of the Pseudomonas putida PdR·Pdx redox system, W106E mutant) (natural protein)
